# Laboratory results from article PMC3326326.
# Where two headings read alike, the source gives them in different places.
# B1: polyU 22-mer (ssRNA)
# RNA: UUUUUUUUUUUUUUUUUUUUUU
# B2: polyA 22-mer, unlabeled (ssRNA)
# RNA: AAAAAAAAAAAAAAAAAAAAAA
# B3: Scr F1 (dsDNA)
# DNA 1: GTACTTACTCTAATCTAGTCGTAGTATGTATGCCTCAATGAA
# DNA 2: TTCATTGAGGCATACATACTACGACTAGATTAGAGTAAGTAC
# B4: TARE6 (79 bp) (dsDNA)
# DNA 1: CCCAAGCTTACTTATATTAGGACCTATATTAGTTATCTGAGGACCTATATTACTTATTTTAGGACCTATATTGAATTCC
# DNA 2: GGAATTCAATATAGGTCCTAAAATAAGTAATATAGGTCCTCAGATAACTAATATAGGTCCTAATATAAGTAAGCTTGGG
# B5: polyA 22-mer (ssRNA)
# RNA: AAAAAAAAAAAAAAAAAAAAAA
# B6: HSP70 (dsDNA)
# DNA 1: GCTAGTGCAAAAGGTTCAAAACCAAATTTACCAGAATCCAAT
# DNA 2: ATTGGATTCTGGTAAATTTGGTTTTGAACCTTTTGCACTAGC
# B7: TARE6 fragment 42 bp (F1) (dsDNA)
# DNA 1: CCCAAGCTTACTTATATTAGGACCTATATTAGTTATCTGAGG
# DNA 2: CCTCAGATAACTAATATAGGTCCTAATATAAGTAAGCTTGGG
# B8: Actin-II (dsDNA)
# DNA 1: TCTGAAGAAGCTGTTGCTTTAGTAGTTGATAATGGAAGTGGT
# DNA 2: ACCACTTCCATTATCAACTACTAAAGCAACAGCTTCTTCAGA
# Assays:
# [1] = target: penta-His-tagged PfAlba3 (Plasmodium falciparum (3D7)); test: AUC
# [2] = target: T1, PfAlba4 (Plasmodium falciparum 3D7, UniProt A0A5K1K8Y8 1-372); test: EMSA
# T1 sequence: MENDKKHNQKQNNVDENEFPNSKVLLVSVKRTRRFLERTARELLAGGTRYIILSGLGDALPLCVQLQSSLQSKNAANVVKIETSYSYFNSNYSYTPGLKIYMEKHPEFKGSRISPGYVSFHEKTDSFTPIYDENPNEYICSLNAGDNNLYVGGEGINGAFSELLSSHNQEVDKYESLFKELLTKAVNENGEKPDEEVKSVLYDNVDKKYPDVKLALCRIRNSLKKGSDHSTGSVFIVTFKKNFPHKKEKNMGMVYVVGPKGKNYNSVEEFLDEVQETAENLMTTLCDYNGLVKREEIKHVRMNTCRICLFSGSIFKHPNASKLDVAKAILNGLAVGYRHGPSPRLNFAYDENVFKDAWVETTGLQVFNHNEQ
# [3] = target: T2, PfAlba2 (Plasmodium falciparum 3D7, UniProt Q8IDN4 1-211); test: EMSA
# T2 sequence: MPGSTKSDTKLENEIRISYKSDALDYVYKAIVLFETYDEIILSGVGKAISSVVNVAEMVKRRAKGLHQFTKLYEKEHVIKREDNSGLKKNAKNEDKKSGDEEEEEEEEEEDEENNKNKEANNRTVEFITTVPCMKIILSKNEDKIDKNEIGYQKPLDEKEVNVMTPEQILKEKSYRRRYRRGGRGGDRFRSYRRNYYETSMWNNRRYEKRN
# [4] = target: T1, PfAlba4; test: competition
# [5] = target: T1, PfAlba4; test: competition; remark: listed apart in the source
# [6] = target: T3, PfAlba3 (Plasmodium falciparum 3D7, UniProt Q8IJX8 1-107); test: EMSA
# T3 sequence: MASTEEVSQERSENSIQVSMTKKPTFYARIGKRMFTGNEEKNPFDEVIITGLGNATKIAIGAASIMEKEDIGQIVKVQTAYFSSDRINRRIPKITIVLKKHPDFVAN
# [7] = target: T2, PfAlba2; test: EMSA; remark: listed apart in the source
# [8] = target: T3, PfAlba3; test: EMSA; remark: listed apart in the source
# [9] = target: T4, PfAlba1 (Plasmodium falciparum 3D7, UniProt Q8IAX8 1-248); test: EMSA
# T4 sequence: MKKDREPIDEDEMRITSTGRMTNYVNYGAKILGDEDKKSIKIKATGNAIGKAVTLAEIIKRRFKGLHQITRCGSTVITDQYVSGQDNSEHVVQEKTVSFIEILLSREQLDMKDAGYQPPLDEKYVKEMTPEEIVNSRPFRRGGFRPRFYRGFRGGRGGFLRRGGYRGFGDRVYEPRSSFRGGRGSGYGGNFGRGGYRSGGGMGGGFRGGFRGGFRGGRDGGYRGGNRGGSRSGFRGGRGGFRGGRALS
# [10] = target: T1, PfAlba4; test: EMSA; remark: listed apart in the source
# [11] = target: T2, PfAlba2; test: EMSA; remark: listed apart in the source
# [12] = target: T1, PfAlba4; test: competition; remark: listed apart in the source
molecule,measurement,setting,value
penta-His-tagged PfAlba3 (natural protein),stoichiometry N,[1],2
B1,binding result,[2],binds
same,binding result,[3],binds
B2,binding result,[4],binds
B3,binding result,[5],binds
B4,binding result,[6],binds
same,binding result,[7],binds
B5,binding result,[8],binds
same,binding result,[9],binds
same,binding result,[10],binds
same,binding result,[11],binds
B6,binding result,[5],binds
B7,binding result,[12],binds
B8,binding result,[5],binds
